How the values were obtained:
[1] = biological target: CD44 (HCELL), native glycoprotein from human HSPCs (KG1a, CD34^pos fraction) (human) (UniProt P16070); test: SPR; CD44 captured from KG1a lysate on Hermes-3-mAb, E-Ig injected, 150 mM NaCl; apparent rate constant; 2nd experiment
[2] = biological target: T1, PSGL-1, native glycoprotein from human HSPCs (KG1a, CD34^pos-BM) (human, UniProt Q14242 42-412, native glycosylation and tyrosine sulfation); test: SPR; PSGL-1 captured from KG1a lysate on KPL-1-mAb, E-Ig injected, 150 mM NaCl; apparent rate constant; mean ± SEM
T1 construct: mature; also called P-selectin glycoprotein ligand-1
T1 sequence (looked up): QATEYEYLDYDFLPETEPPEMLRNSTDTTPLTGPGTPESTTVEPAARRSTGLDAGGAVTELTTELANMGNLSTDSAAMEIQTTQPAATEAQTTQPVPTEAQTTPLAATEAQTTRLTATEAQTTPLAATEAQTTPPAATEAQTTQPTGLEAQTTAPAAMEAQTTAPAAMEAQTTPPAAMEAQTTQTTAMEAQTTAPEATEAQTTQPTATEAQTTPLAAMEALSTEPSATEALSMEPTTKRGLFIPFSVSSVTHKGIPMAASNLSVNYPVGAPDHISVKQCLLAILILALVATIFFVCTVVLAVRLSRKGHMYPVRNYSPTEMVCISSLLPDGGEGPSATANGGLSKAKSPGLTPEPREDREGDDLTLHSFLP

[3] = biological target: CD44 (HCELL), native glycoprotein from human HSPCs (KG1a, CD34^pos fraction) (human) (UniProt P16070); test: SPR; CD44 captured from KG1a lysate on Hermes-3-mAb, E-Ig injected (3.9-2000 nM), 150 mM NaCl; steady-state model; mean ± SEM
[4] = biological target: T2, CD34, native glycoprotein from human HSPCs (KG1a, CD34^pos-BM, CD34^pos-UCB, CD34^pos-AML) (human, UniProt P28906 32-385, native glycosylation (about 120-130 kDa form); sialylated O-glycans and tyrosine sulfation are shown to matter for selectin binding); test: SPR, apparent rate constant: includes loss of CD34 or CD34⋅E-Ig from 4H11-mAb and of E-Ig from CD34⋅4H11-mAb; KG1a lysate
T2 construct: mature; also called E-selL CD34
T2 sequence (looked up): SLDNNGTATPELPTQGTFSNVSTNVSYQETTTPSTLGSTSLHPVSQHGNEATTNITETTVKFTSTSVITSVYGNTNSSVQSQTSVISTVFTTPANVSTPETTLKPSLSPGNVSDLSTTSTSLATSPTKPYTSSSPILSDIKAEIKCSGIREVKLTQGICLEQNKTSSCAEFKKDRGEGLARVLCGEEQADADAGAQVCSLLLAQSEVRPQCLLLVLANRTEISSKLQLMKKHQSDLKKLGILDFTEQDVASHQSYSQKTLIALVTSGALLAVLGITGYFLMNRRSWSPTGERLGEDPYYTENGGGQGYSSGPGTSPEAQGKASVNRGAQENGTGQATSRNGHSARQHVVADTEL

[5] = biological target: T1, PSGL-1, native glycoprotein from human …; test: SPR; PSGL-1 captured from KG1a lysate on KPL-1-mAb, E-Ig injected (3.9-2000 nM), 150 mM NaCl; steady-state model; 3rd experiment
[6] = biological target: T2, CD34, native glycoprotein from human …; test: SPR; CD34 captured from KG1a lysate on 563-mAb, E-Ig injected, 150 mM NaCl; apparent rate constant; 3rd experiment
[7] = biological target: T2, CD34, native glycoprotein from human …; test: SPR; CD34 captured from KG1a lysate on 563-mAb, E-Ig injected (3.9-2000 nM), 150 mM NaCl; steady-state model; mean ± SEM
[8] = biological target: CD44 (HCELL), native glycoprotein from human HSPCs (KG1a, CD34^pos fraction) (human) (UniProt P16070); test: SPR; CD44 captured from KG1a lysate on Hermes-3-mAb, E-Ig injected, 150 mM NaCl; apparent rate constant; mean ± SEM
[9] = biological target: T3, CD43, native glycoprotein from KG1a cells (human, UniProt P16150 20-400, native glycosylation); test: SPR; CD43 captured from KG1a lysate on polyclonal CD43 Ab, E-Ig injected, 150 mM NaCl; apparent rate constant; 1st experiment
T3 construct: mature
T3 sequence (looked up): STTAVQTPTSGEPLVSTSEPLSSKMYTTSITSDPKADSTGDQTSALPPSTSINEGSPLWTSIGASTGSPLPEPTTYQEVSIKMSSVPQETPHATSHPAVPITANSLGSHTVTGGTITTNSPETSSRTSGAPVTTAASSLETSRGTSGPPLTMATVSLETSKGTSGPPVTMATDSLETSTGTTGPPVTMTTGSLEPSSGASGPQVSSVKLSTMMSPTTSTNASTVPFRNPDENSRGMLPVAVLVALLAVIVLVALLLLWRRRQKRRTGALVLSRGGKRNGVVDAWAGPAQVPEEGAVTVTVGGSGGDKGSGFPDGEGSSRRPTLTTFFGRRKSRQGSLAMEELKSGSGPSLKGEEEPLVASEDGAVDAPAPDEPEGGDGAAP

[10] = biological target: T3, CD43, native glycoprotein from KG1a …; test: SPR; CD43 captured from KG1a lysate on polyclonal CD43 Ab, E-Ig injected (3.9-2000 nM), 150 mM NaCl; steady-state model; 2nd experiment
[11] = biological target: T2, CD34, native glycoprotein from human …; test: SPR; CD34 captured from KG1a lysate on 563-mAb, E-Ig injected (3.9-2000 nM), 150 mM NaCl; steady-state model; 2nd experiment

Sequence of CD44 (HCELL), native glycoprotein from human HSPCs (KG1a, CD34^pos fraction) (human) (P16070 21-742): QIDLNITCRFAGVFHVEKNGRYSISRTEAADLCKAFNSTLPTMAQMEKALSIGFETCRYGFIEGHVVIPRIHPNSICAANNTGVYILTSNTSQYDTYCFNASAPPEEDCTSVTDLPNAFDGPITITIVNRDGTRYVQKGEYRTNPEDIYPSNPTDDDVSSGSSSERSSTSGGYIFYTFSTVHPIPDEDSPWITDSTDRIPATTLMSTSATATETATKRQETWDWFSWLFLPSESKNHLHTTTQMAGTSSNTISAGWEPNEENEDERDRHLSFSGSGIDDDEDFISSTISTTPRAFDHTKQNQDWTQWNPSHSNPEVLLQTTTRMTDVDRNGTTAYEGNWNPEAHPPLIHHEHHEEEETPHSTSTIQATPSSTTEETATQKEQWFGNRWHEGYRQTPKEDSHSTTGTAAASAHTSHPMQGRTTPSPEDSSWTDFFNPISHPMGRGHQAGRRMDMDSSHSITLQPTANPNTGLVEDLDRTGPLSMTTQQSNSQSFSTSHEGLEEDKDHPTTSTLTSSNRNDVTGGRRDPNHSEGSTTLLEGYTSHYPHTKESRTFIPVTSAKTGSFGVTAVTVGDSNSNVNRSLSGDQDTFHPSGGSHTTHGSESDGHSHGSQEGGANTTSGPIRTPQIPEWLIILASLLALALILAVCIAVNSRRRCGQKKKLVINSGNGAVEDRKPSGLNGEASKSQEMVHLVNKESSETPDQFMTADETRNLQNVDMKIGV

B1: recombinant E-selectin human immunoglobulin chimeric protein (Fc fusion)
chain: WSYNTSTEAMTYDEASAYCQQRYTHLVAIQNKEEIEYLNSILSYSPSYYWIGIRKVNNVWVWVGTQKPLTEEAKNWAPGEPNNRQKDEDCVEIYIKREKDVGMWNDERCSKKKLALCYTAACTNTSCSGHGECVETINNYTCKCDPGFSGLKCEQIVNCTALESPEHGSLVCSHPLGNFSYNSSCSISCDRGYLPSSMETMQCMSSGEWSAPIPACNVVECDAVTNPANGFVECFQNPGSFPWNTTCTFDCEEGFELMGAQSLQCTSSGNWDNEKPTCKAVTCRAVRQPQNGSVRCSHSPAGEFTFKSSCNFTCEEGFMLQGPAQVECTTQGQWTQQIPVCEAFQCTALSNPERGYMNCLPSASGSFRYGSSCEFSCEQGFVLKGSKRLQCGPTGEWDNEKPTCEAVRCDAVHQPPKGLVRCAHSPIGEFTYKSSCAFSCEEGFELHGSTQLECTSQGQWTEEVPSCQVVKCSSLAVPGKINMSCSGEPVFGTVCKFACPEGWTLNGSAARTCGATGHWSGLLPTCEAPTESNIP
koff [1]: 0.0002 s⁻¹
kon [1]: 794 M⁻¹ s⁻¹
koff [2]: 0.00019 s⁻¹
kon [2]: 793 M⁻¹ s⁻¹
Kd [3]: 233 nM
koff [4]: 0.00033 s⁻¹
Kd [5]: 229 nM
koff [6]: 0.000331 s⁻¹
Kd [7]: 237 nM
koff [8]: 0.00019 s⁻¹
kon [8]: 903 M⁻¹ s⁻¹
koff [9]: 0.00048 s⁻¹
kon [9]: 944 M⁻¹ s⁻¹
Kd [10]: 376 nM
Kd [11]: 268 nM

From patent US20200199533A1 (KING ABDULLAH UNIVERSITY OF SCIENCE AND TECHNOLOGY, published 2020)
